What was measured:
purified protein = substrate: C=C(C)CCO[P@@](=O)(O)OP(=O)(O)O; test: purified protein; details: DMAPP 50 μM constant, 35 mM Tris-HCl pH 7.5, 10 mM MgCl2, 4 mM DTT, 30 °C
[1] = substrate: CC(C)=CCC/C(C)=C/COP(=O)(O)OP(=O)(O)O; test: LC/MS quantification of FPP formed; type: biochemical, Sundstroemia setigera; details: IPP 50 μM constant, 35 mM Tris-HCl pH 7.5, 10 mM MgCl2, 4 mM DTT, 30 °C
[2] = substrate: CC(C)=CCOP(=O)(O)OP(=O)(O)O; test: LC/MS quantification of FPP formed; type: biochemical, Sundstroemia setigera; details: IPP 50 μM constant, 35 mM Tris-HCl pH 7.5, 10 mM MgCl2, 4 mM DTT, 30 °C

B1: RsFPPS (Sundstroemia setigera) (protein)
chain: VSSLPPIIAGAAIYRLVSSKTLPDLTSAFFELEIPDQISLLSLLFASVFSAVSISGFIAPPGHNDDDDEDEHKPPFQYPLKEIASKTTDKEKFLSVYPCLRDSIAEYFATKHEMVPEGVNWITEMIDYSCVGGKMNRGITVLTVARTLSGSSGLTPREEARASVVGWGIEFLQAFFLVADDLMDDSKTRRGQPCWYLLPKVGTIAVNDSFLLESFVFTFLKEHFGKEPYYIKLVELFLETIQQTECGQLLDLTSQPKDAKTADLSRFTIERYRKIVKYKTAFYSFYLPVASAMLMSGVTNSKSFKTARNICCIMGEYFQIQDDVLDCYGTPEVIGKVGTDIQDNKCSWLIVQALDRATPEQRKVIEENYGKWDDAKVAKIKAIYNEMGLKSVFEKYEEDSYAEIQEELKKINDIPQEVFTLFLDKIYKRSK
notes: kcat calculated for dimer
Km (purified protein): 21.5 ± 6.7 µM
kcat (purified protein): 6.192 ± 0.5738 s⁻¹
Km [1]: 63.0 ± 7.5 µM
kcat [1]: 43.5 ± 2.228 s⁻¹
Km [2]: 10.6 ± 2.3 µM
kcat [2]: 5.73 ± 0.3038 s⁻¹

Source: paper PMC4440519, “Cloning and characterization of farnesyl pyrophosphate synthase from the highly branched isoprenoid producing diatom Rhizosolenia setigera” (Scientific Reports, 2015)
